B1: FUN14 domain-containing protein 1 (Homo sapiens), Q8IVP5 (parent)
chain: MATRNPPPQDYESDDDSYEVLDLTEYARRHQWWNRVFGHSSGPMVEKYSVATQIVMGGVTGWCAGFLFQKVGKLAATAVGGGFLLLQIASHSGYVQIDWKRVEKDVNKAKRQIKKRANKAAPEINNLIEEATEFIKQNIVISSGFVGGFLLGLAS
B2: FUN14 domain-containing protein 1 (Homo sapiens), Q8IVP5 (parent)
chain: B1 chain
partner: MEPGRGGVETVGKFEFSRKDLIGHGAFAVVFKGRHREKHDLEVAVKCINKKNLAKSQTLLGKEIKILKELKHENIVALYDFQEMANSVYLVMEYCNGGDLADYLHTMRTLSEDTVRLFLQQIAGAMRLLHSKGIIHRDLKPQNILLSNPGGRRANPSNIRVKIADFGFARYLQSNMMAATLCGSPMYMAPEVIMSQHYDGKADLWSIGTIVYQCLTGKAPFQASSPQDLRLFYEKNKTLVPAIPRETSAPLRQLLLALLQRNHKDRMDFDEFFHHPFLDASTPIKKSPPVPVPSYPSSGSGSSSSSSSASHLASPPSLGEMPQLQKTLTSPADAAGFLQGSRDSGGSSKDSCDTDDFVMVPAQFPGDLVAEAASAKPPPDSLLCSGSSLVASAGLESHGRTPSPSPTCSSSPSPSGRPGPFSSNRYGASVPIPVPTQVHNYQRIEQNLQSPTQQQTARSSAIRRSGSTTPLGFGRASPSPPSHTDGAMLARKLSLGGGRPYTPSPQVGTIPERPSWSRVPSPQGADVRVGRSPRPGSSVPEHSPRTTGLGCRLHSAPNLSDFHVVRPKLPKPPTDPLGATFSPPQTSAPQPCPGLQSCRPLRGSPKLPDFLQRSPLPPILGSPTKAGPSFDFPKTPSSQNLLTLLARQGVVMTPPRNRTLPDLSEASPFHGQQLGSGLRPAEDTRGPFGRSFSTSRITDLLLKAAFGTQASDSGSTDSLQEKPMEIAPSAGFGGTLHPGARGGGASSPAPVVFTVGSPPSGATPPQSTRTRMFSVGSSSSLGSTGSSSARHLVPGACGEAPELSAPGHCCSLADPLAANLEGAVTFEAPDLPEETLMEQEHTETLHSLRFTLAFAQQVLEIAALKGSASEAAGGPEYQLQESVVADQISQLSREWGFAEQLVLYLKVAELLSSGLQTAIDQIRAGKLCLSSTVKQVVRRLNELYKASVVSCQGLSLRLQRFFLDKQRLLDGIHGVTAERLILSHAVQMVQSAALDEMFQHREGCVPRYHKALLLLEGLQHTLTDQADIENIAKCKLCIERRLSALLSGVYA

Variants of: B1
Details: with mlp3b_human MAP1LC3B

Row | Variant | effect of a mutation on the interaction
1 | S17D | increasing interaction

Variants of: B1
Details: with mlp3b_human MAP1LC3B
Remark: another data set of the same source

Row | Variant | effect of a mutation on the interaction
2 | S17A | decreasing interaction

Variants of: B2
Details: with ulk1_mouse Ulk1, O70405

Row | Variant | effect of a mutation on the interaction
3 | N118A | disrupting interaction
